From article doi:10.1101/2022.01.19.476892 (bioRxiv, 2022)

B1: EY6A (antibody, V domains shown)
VH: EVQLVESGGGVVQPGRSLRLSCAASAFTFSSYDMHWVRQAPGKGLEWVAVISYDGSNKYYADSVKGRFTISRDNSKNTLYLQMNSLRAEDTAVYYCAKDGGKLWVYYFDYWGQGTLVTVSS
VL: not shown
B2: VacW-209 (antibody, V domains shown)
VH: QVQLVESGGGVVQPGRSLRLSCAASGFTFSSIAMHWVRQAPGKGLEWVAVMSFDGSIKYYGDSVKGRFTISRDNSKSTLYLQMNSLRAEDTAVYYCARGVQGYYDRSGYYNLDYNYGMDVWGQGTTVTVSS
VL: QSVLTQPPSVSGAPGQRVTISCTGSSSNIGAGYDVHWYQQLPGTAPKLLIYGNSNRPSGVPDRFSGSKSGTSASLAITGLQAEDEADYYCQSYDSSLSGWVFGGGTKLTVL
B3: H014 (antibody, V domains shown)
VH: EVQLVQSGAEVKKPGATVKISCKVSGYSFSNYYIHWVKQAPGKSLEWIGYIDPFNGGTSDNLKFKGAATLTADTSTDTAYMELSSLRSEDTAVYYCARSEYDPYYVMDYWGQGTTVTVSS
VL: IVLTQSPFQSVSPKEKVTITCRASQSISSNLHWYQQKPDQSPKLLIKYASQSISGIPSRFSGSGSGTDFTLTINSLEAEDFGIYFCQQTNFWPYIFGQGTKLEIL
B4: C022 (antibody, V domains shown)
VH: QVQLQESGPGLVKPSETLSVTCTVSGGSISSSRYYWGWIRQPPGKGLEWIGSIYYSGSTYYNPSLKSRVTISVDTSKNQFSLKLSSVTAADTAVYYCARHAAAYYDRSGYYFIEYFQHWGQGTLVTVSS
VL: DIQMTQSPSTLSASVGDSVTITCRASQSISSWLAWYQQKPGKAPKLLIYKASSLESGVPSRFSGSGSGTEFTLTISSLQPDDFATYYCQQYNNYRYTFGQGTKLEIK
B5: C118 (antibody, V domains shown)
VH: QVQLVESGGGVVQPGRSLRLSCAASGFTFSNYAMHWVRQAPGKGLEWVAVISYDGSNKYYADSVKGRFTISRDNSKNTLYLQMNSLRAEDTAIYYCASGYTGYDYFVRGDYYGLDVWGQGTTVTVSS
VL: QPVLTQSPSASASLGASVKLTCTLSSGHSSYAIAWHQQQPEKGPRYLMKLNTDGSHSKGDGIPDRFSGSSSGAERYLTISSLQSEDEADYYCQTWGTGILVFGGGTKLTVL
B6: S2X35 (antibody, V domains shown)
VH: QVQLVQSGAEVKKPGASVKVSCKASGYTFTNYGISWVRQAPGQGLEWMGWISAYKGNTNYAQKLQGRVTMTTDTSTSTAYMELRSLRSDDTAVYYCARPDYQVLGYDFWIGYYGMDVWGQGTTVIVSS
VL: QSVLTQPPSVSGAPGQRVTISCTGSSSNIGAGYDVHWYQQLPGTAPKLLIYGNTNRPSGVPDRFSGSKSGTSASLAITGLQAEDEADYYCQSYDSSLSGSEVVFGGGTKLTVL

What was measured:
[1] = target: T1, SARS-CoV-2 WT RBD protein (residues 319-541) (SARS-CoV-2, UniProt P0DTC2); experiment: SPR
RBD protein of SARS-CoV [2] = target: T2, RBD protein of SARS-CoV (Severe acute respiratory syndrome …, UniProt P59594); experiment: cell-based or functional assay
RBD protein of SARS-CoV [3] = target: T2, RBD protein of SARS-CoV; experiment: SPR
[4] = target: T1, SARS-CoV-2 WT RBD protein (residues …); experiment: ELISA

Binder | binding result [1] | other results
B1 | binds | 
B2 |  | IC50 of neutralisation of SARS-CoV pseudovirus (HEK-293T-hACE2 cells) (RBD protein of SARS-CoV [2]): 0.141 µg/mL; Kd (RBD protein of SARS-CoV [3]): 0.54 nM; binding result [4]: binds
B3 | binds | 
B4 | binds | 
B5 | binds | 
B6 | binds | 
